From publication PMC4735607, “Reversal of axonal growth defects in an extraocular fibrosis model by engineering the kinesin–microtubule interface” (Nature Communications, 2016)

B1: WT KIF5B, single-headed (monomeric) construct HK349 (K349-SNAP-His) (domain or fragment, human, UniProt P33176 1-349, looked up)
chain: MADLAECNIKVMCRFRPLNESEVNRGDKYIAKFQGEDTVVIASKPYAFDRVFQSSTSQEQVYNDCAKKIVKDVLEGYNGTIFAYGQTSSGKTHTMEGKLHDPEGMGIIPRIVQDIFNYIYSMDENLEFHIKVSYFEIYLDKIRDLLDVSKTNLSVHEDKNRVPYVKGCTERFVCSPDEVMDTIDEGKSNRHVAVTNMNEHSSRSHSIFLINVKQENTQTEQKLSGKLYLVDLAGSEKVSKTGAEGAVLDEAKNINKSLSALGNVISALAEGSTYVPYRDSKMTRILQDSLGGNCRTTIVICCSPSSYNESETKSTLLFGQRAKTIKNTVCVNVELTAEQWKKKYEKEKE
modifications: fluorescent dye BG-549 (SNAP-surface 549) on the SNAP tag
notes: kinesin heavy chain KIF5B, human, residues 1-349; also called minimal motor; not shown: SNAP tag, C-terminal, kept
B2: D279R KIF5B, single-headed (monomeric) construct HK349 (domain or fragment, human, UniProt P33176 1-349, looked up)
chain: MADLAECNIKVMCRFRPLNESEVNRGDKYIAKFQGEDTVVIASKPYAFDRVFQSSTSQEQVYNDCAKKIVKDVLEGYNGTIFAYGQTSSGKTHTMEGKLHDPEGMGIIPRIVQDIFNYIYSMDENLEFHIKVSYFEIYLDKIRDLLDVSKTNLSVHEDKNRVPYVKGCTERFVCSPDEVMDTIDEGKSNRHVAVTNMNEHSSRSHSIFLINVKQENTQTEQKLSGKLYLVDLAGSEKVSKTGAEGAVLDEAKNINKSLSALGNVISALAEGSTYVPYRRSKMTRILQDSLGGNCRTTIVICCSPSSYNESETKSTLLFGQRAKTIKNTVCVNVELTAEQWKKKYEKEKE
modifications: fluorescent dye BG-549 (SNAP-surface 549) on the SNAP tag
notes: kinesin heavy chain KIF5B, human, residues 1-349, with D279R in the L12 loop; also called HK349 D279R; not shown: SNAP tag, C-terminal, kept

Legend:
Settings in all cases: both partners purified
[1] = target: T1, beta-R262A microtubules of recombinant human TUBA1B (K40R) and TUBB3 R262A tubulin (human, UniProt P68363-1 1-451; Q13509-1 1-450, K40R | R262A); test: co-sedimentation; AMPPNP state: 0.1 µM BG-549-labelled HK349 with varying concentrations of MTs; x2 MA buffer, 1 mg/ml casein, 40 µM taxol, 1 mM AMPPNP and 1 U/ml apyrase; fraction of HK349 in the MT pellet against total MT concentration fitted to a hyperbola
T1 construct: beta3-tubulin TUBB3, Homo sapiens, NP_006077, with R262A; Polymer of alpha/beta heterodimers, taxol-stabilised; Each tag is joined through a GGSGG linker; also called β-R262A; R262A MT; source: HighFive insect cells (baculovirus), purified (DEAE Sepharose, TALON, anti-FLAG resin), polymerized with taxol
T1 sequence (P68363 whole entry K40R, chain 1 of 2): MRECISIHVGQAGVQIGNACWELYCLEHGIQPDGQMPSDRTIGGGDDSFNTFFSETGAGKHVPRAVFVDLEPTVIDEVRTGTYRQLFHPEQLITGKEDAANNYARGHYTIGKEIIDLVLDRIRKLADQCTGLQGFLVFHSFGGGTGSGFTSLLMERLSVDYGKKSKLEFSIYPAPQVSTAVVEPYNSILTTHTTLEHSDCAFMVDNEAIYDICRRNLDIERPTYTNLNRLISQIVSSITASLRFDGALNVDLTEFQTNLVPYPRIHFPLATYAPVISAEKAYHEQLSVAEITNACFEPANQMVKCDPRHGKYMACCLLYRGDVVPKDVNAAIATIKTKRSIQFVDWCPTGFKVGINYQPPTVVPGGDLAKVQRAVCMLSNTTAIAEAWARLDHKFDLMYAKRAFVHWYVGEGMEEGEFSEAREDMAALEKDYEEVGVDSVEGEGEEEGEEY
T1 sequence (Q13509 whole entry R262A, chain 2 of 2): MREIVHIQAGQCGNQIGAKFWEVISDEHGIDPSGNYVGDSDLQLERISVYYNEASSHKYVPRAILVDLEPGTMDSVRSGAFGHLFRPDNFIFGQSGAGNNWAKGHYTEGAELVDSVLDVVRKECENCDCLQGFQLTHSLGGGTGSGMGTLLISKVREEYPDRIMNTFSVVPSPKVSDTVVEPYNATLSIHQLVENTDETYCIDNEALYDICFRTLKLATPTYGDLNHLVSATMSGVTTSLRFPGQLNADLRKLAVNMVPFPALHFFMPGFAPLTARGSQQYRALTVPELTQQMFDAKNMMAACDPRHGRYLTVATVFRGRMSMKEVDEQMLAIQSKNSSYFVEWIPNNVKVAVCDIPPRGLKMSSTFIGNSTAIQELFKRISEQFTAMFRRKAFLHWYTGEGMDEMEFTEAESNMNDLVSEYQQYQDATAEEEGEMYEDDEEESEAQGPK

[2] = target: T2, WT microtubules of recombinant human TUBA1B (K40R, treated as WT) and TUBB3 tubulin (human, UniProt P68363-1 1-451; Q13509-1 1-450, K40R); test: as above
T2 construct: beta3-tubulin TUBB3, Homo sapiens, NP_006077; Polymer of alpha/beta heterodimers, taxol-stabilised; Each tag is joined through a GGSGG linker; also called WT MT; WT MTs; source: HighFive insect cells (baculovirus), purified (DEAE Sepharose, TALON, anti-FLAG resin), polymerized with taxol
T2 sequence (P68363 whole entry K40R, chain 1 of 2): as the sequence (P68363 whole entry K40R, chain 1 of 2) above
T2 sequence (Q13509 whole entry, chain 2 of 2): as the sequence (Q13509 whole entry R262A, chain 2 of 2) above, with A262R counted along it

[3] = target: T1, beta-R262A microtubules of recombinant …; test: co-sedimentation; nucleotide-free state: 0.1 µM BG-549-labelled HK349 with varying concentrations of MTs; x2 MA buffer, 1 mg/ml casein, 40 µM taxol, 1 U/ml apyrase; fraction of HK349 in the MT pellet against total MT concentration fitted to a hyperbola
[4] = target: T2, WT microtubules of recombinant human …; test: as above
[5] = target: T1, beta-R262A microtubules of recombinant …; test: co-sedimentation; ADP state: 0.1 µM BG-549-labelled HK349 with varying concentrations of MTs; x2 MA buffer, 1 mg/ml casein, 40 µM taxol, 1 mM ADP and 1 U/ml hexokinase; fraction of HK349 in the MT pellet against total MT concentration fitted to a hyperbola
[6] = target: T2, WT microtubules of recombinant human …; test: as above

Binder | Kd [1] [nM] | Kd [2] [nM] | Kd [3] [nM] | Kd [4] [nM] | Kd [5] [nM] | Kd [6] [nM]
B1 | 2500 | 29 | 860 | 12 | 36000 | 6500
B2 | 50 | 10 | 120 | 12 | 14000 | 12000
